What is called Ki is a dissociation constant, usually derived from enzyme kinetics or from competition with a known ligand.

The record followed here is patent US6030776.

Data set [1] deals with bradykinin (native BK peptide) (UniProt P01042). Nature of the data set: inhibition. Particulars: 5' guanosine monophosphorothioate (GMPS); inhibition of reaction of 12.1 with BrBK; nearly identical to Km of the uninhibited reaction.
The target of data set [2] is des-Arg9-bradykinin lacks carboxy-terminal Arg9 (UniProt P01042). Nature of the data set: inhibition. The conditions noted are these: 5' guanosine monophosphorothioate (GMPS); inhibition of reaction of 12.1 with BrBK; about 18-fold weaker than BK.
The target of data set [3] is N-bromoacetyl-bradykinin (BrBK) (UniProt P01042). Particulars: 5' guanosine monophosphorothioate (GMPS); 100-fold reduction in Km vs bulk 30N1 pool, 67-fold higher kcat, 6700-fold higher kcat/Km; thioether bond formation assayed on APM gel.

For “AGGCUUCGACAAACGCUCAAAGCUGUUGGCAGCGCUGGUGAAGGGAUGGC [reactant 12.1 GMPS-RNA]”, the Ki in data set [1] amounted to 140 µM; in data set [2], 2600 µM. In data set [3], the fold reduction in Km vs starting pool was found to be 100 fold.
